What was measured:
Assay in all cases: SPR
[1] = target: human FcγRI, HIS-tagged (human) (UniProt P12314)
[2] = target: human FcγRIIA 167R, HIS-tagged (human) (UniProt P12318)
[3] = target: human FcγRIIIA 176F, HIS-tagged (human) (UniProt P08637)
[4] = target: human FcγRIIIA 176V, HIS-tagged (human) (UniProt P08637)
[5] = target: human FcγRIIA 167H, HIS-tagged (human) (UniProt P12318)
[6] = target: human FcγRIIB, HIS-tagged (human) (UniProt P31994)
UniProt P31994, sequence (P31994 43-310): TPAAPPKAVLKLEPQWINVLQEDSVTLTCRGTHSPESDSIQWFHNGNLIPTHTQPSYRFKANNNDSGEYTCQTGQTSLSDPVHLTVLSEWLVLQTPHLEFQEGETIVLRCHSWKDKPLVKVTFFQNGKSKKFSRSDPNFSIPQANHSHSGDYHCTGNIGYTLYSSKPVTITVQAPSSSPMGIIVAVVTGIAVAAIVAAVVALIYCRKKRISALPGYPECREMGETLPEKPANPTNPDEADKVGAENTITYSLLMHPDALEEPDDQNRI

UniProt P12314, sequence (P12314 16-374): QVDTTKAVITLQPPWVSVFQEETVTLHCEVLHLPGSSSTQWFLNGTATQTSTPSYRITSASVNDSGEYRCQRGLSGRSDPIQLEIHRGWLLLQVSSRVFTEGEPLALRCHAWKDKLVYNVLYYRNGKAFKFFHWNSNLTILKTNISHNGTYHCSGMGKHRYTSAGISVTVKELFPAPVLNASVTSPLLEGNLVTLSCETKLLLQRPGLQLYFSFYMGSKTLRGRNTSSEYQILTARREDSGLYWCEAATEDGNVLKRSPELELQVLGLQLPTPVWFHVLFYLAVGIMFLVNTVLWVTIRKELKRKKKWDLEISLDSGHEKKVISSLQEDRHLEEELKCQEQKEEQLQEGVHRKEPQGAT

Q: Which results are given for “TA99 hIgG1 N297D/S298A/K326I/A327Y/L328G, aglycosylated (antibody)”?
A: Kd [1]: 0.029 µM; Kd [2]: > 10 µM; Kd [3]: 2.23 µM; Kd [4]: 1.05 µM

Q: For “TA99 hIgG1 N297D/S298T/K326I/A327Y/L328G, aglycosylated (antibody)”, which Kd [1] is on record?
A: 0.005 µM

Q: And the Kd [2]?
A: 2.73 µM

Q: And the Kd [3]?
A: 1.81 µM

Q: And the Kd [4]?
A: 1.04 µM

Q: What does the source list for “TA99 hIgG1 N297H/S298A/K326I/A327Y/L328G, aglycosylated (antibody)”?
A: Kd [3]: 1.68 µM; Kd [4]: 1.79 µM

Q: With “TA99 hIgG1 N297Q, aglycosylated (antibody)” as the substance, how does the Kd [1] read?
A: 0.295 µM

Q: Which results are given for “TA99 hIgG1 S298G/T299A, aglycosylated (antibody)”?
A: Kd [5]: 0.996 µM; Kd [2]: > 10 µM; Kd [6]: 6.45 µM

Q: For “TA99 hIgG1 T299A/K326I/A327Y/L328G, aglycosylated (antibody)”, which Kd [1] is on record?
A: 0.243 µM

Q: What about the Kd [5] of the same substance?
A: 0.605 µM

Q: And the Kd [2]?
A: 2.49 µM

Q: What about the Kd [6] of the same substance?
A: 2.1 µM

Q: And the Kd [3]?
A: 1.24 µM

Q: And the Kd [4]?
A: 0.452 µM

Q: For “TA99 hIgG1 wild-type, glycosylated (from UniProt P01857 1-399) (antibody)”, which Kd [5] is on record?
A: 1.15 µM

Q: And the Kd [2]?
A: 8.02 µM

Q: And the Kd [6]?
A: 3.52 µM

Q: And the Kd [3]?
A: 4.54 µM

Q: What about the Kd [4] of the same substance?
A: 1.7 µM

Q: For “human IgG1 used as a control on Biacore (antibody)”, which Kd [5] is on record?
A: 1.09 µM

Q: And the Kd [6]?
A: 6.5 µM

Q: And the Kd [4]?
A: 0.348 µM

Reference: article PMC5584586
